Our source for the IC50 values is US20160138094.

For data set [1], the system named is TALE_038 (TALE_97 with RVD NG opposite C6) repeat 5 RVD HD to NG (Xanthomonas axonopodis pv. citri (engineered)). The data set is described as follows: inhibition.
The subject of data set [2] is TALE_037 (TALE_97 with RVD N* opposite C6) repeat 5 RVD HD to N* (position 13 deleted) (Xanthomonas axonopodis pv. citri (engineered)). The data set is described as follows: inhibition.
The mark [3] stands for this setting: 5mC at target position 6, inhibition of Klenow exo- primer extension, MgCl2, room temperature.
The mark [4] stands for this setting: inhibition of Klenow exo- primer extension, MgCl2, room temperature.

As for “TGGATTCCCACTCTTCAGCCCCAGCGTTACAGCATCTTCAGTGGCTTCTTCCACCGTGAGCTCTTCCGTTTCCACATCC / GGATGTGGAAACGGAAGA [t97_C6hmC / p97_rev]”, the IC50 in data set [1] (5hmC at target position 6, reduction of primer extension to 50%, estimated) is 2000 nM; in data set [2] (5hmC at target position 6, reduction of primer extension to 50% at about this TALE concentration), 1500 nM.
For the sequence “TGGATTCCCACTCTTCAGCCCCAGCGTTACAGCATCTTCAGTGGCTTCTTCCACCGTGAGCTCTTCCGTTTCCACATCC / GGATGTGGAAACGGAAGA [t97_C6mC / p97_rev]”, the IC50 in data set [1] (setting [3]) was determined as 163 nM; in data set [2] (setting [3]), 51 nM.
Consider “TGGATTCCCACTCTTCAGCCCCAGCGTTACAGCATCTTCAGTGGCTTCTTCCACCGTGAGCTCTTCCGTTTCCACATCC / GGATGTGGAAACGGAAGA [t97 template / p97_rev primer]”, for which the IC50 is 357 nM in data set [1] (setting [4]) and 60 nM in data set [2] (setting [4]).
